Patent publication US20170306005A1 (NASCIENT, published 2017)

T1: human tenascin-C rCd4-His-FBG (rat; human, UniProt P05540 207-392, limits assumed)
T1 construct: domain: domains 3 and 4; C-terminal FBG fusion; biotinylated in the ELISA and HTRF screens; also called Hu TNC; human TNC rCd4-His-FBG; not shown: 6His tag
T1 sequence (chain (part 1 of 2)): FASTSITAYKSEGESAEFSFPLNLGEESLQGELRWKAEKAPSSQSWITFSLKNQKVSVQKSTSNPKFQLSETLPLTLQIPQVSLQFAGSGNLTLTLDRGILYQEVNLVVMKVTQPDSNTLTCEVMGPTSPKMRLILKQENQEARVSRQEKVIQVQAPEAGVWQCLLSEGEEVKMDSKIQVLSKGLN
T1 sequence (chain (part 2 of 2)): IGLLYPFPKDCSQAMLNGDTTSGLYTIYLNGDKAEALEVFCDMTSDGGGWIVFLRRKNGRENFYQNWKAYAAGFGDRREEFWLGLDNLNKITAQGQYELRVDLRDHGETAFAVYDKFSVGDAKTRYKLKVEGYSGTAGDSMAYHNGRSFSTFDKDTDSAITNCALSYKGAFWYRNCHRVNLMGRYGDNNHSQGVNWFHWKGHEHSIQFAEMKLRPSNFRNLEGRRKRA

T2: mouse tenascin-C rCd4-His-FBG (rat; mouse, UniProt P05540 207-392, limits assumed)
T2 construct: domain: domains 3 and 4; C-terminal FBG fusion; biotinylated in the ELISA screen; also called Mu TNC; mouse TNC rCd4-His-FBG; not shown: 6His tag
T2 sequence (chain (part 1 of 2)): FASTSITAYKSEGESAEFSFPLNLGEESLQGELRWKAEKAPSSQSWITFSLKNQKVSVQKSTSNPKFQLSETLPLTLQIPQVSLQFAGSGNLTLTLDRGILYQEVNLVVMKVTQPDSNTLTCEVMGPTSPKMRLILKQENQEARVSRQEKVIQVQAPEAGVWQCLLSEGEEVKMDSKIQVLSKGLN
T2 sequence (chain (part 2 of 2)): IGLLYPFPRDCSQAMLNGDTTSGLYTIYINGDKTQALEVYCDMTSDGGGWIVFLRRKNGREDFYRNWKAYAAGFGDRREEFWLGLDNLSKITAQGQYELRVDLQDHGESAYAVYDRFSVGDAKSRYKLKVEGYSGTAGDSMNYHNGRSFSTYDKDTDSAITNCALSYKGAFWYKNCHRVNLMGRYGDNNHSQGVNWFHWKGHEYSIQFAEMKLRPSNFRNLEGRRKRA

T3: human tenascin-R rCd4-His-FBG (rat; human, UniProt P05540 207-392, limits assumed)
T3 construct: domain: domains 3 and 4; C-terminal FBG fusion; also called Hu TNR; human TNR rCd4-His-FBG; not shown: 6His tag
T3 sequence (chain (part 1 of 2)): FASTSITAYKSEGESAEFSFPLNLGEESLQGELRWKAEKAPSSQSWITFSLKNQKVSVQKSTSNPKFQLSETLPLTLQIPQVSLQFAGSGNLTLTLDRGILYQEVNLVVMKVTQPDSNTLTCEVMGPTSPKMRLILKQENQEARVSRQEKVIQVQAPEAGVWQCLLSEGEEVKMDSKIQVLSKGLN
T3 sequence (chain (part 2 of 2)): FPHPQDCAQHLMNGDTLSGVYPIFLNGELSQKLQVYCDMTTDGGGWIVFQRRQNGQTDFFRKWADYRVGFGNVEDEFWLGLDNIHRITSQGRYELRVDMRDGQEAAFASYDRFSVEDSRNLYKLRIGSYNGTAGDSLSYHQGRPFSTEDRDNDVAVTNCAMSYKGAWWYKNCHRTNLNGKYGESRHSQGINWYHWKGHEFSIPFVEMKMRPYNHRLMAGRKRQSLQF


What was measured:
[1] = target: T1, human tenascin-C rCd4-His-FBG; test: SPR off-rate screen, captured IgG4 supernatant, 25 C
Protocol: (§1) The 31 scFv of interest were sub-cloned into a human IgG4 expression vector for generation of antibodies as human IgG4 with a hinge-stabilising mutation (S241P; Angal et al, 1993). […] Briefly, surface plasmon resonance (SPR) experiments were performed using a BIAcore T100 instrument and followed the protocol according to the Human antibody capture kit protocol (GE, BR-1008-39). For off-rate screening, 10,000 response units (RU) of anti-human Fc IgG (GE, BR-1008-39) was immobilised on flow-cells (FC1 and FC2) of a Series 5 CM5 dextran sensor chip (BR-1005-30) using EDC/NHS cross-linking chemistry according to the amine coupling kit protocol (GE, BR-1000-50). Culture supernatants containing expressed IgG4 were diluted 1:2 with 2×PBS-T and injected into FC2 (flowrate 5 μl/min, 60 s contact time) to enable antibody capture at 25° C. […] A fixed concentration of antigen (15 nM of human and mouse TNC rCd4-His-FBG and 100 nM of human TNR rCd4-His-FBG) was injected with a flow-path via FC 1 (reference flow cell) and FC 2 (antibody capture flow cell), with a flow rate of 30 μl/min, and the association and dissociation phases measured over 1 and 5 min time periods, respectively. Regeneration of the binding surface employed 3M MgCl₂ with 30 s contact time. Off rates were determined by reference cell subtraction and fitting the sensogram experimental data assuming a 1:1 interaction using BIAevaluation software (GE, BR-1005-97).

[2] = target: T2, mouse tenascin-C rCd4-His-FBG; test: as above
Protocol: as §1

[3] = target: T3, human tenascin-R rCd4-His-FBG; test: as above
Protocol: as §1

[4] = target: T1, human tenascin-C rCd4-His-FBG; test: SPR, captured purified IgG4, 37 C
Protocol: (§2) Detailed kinetic parameters were evaluated for the 9 prioritised IgG4 antibodies. Binding characteristics were determined for interaction with human, rat and dog TNC rCD4-His-FBG, and human TNR rCD4-His-FBG. Kinetic assays followed essentially the same protocols as for the off-rate determinations described above, with some modifications as follows. […] Purified anti-FBG IgG4 was diluted to a concentration of 3.5 nM in PBS, pH 7.4, 0.05% Tween-20 and injected into FC2 at a flow rate of 10 μl/min, 60 s contact time. […] Antigens were prepared by doubling dilution in PBS, pH 7.4, 0.05% Tween-20 (highest concentration 100 nM except mouse rCD4-His-FBG which was 7 nM). Assays were performed at 37° C. (30 μl/min, 120 s contact time; mouse rCD4-His-FBGFBG 10 μl/min, 60 s contact time), with both the flow cell and injection chamber equilibrated to this temperature. As before, kinetic parameters were determined by reference cell subtraction and fitting the sensogram experimental data assuming a 1:1 interaction using BIAevaluation software (GE, BR-1005-97).

[5] = target: T2, mouse tenascin-C rCd4-His-FBG; test: SPR, captured purified IgG4, 37 C
Protocol: as §2

[6] = target: T2, mouse tenascin-C rCd4-His-FBG; test: anti-FLAG capture ELISA, scFv supernatant
[7] = target: T1, human tenascin-C rCd4-His-FBG; test: HTRF competition; competitor d2-labelled B12 IgG
Protocol: All samples and reagents were prepared in assay buffer (50 mM NaPO₄, 0.1% BSA, 0.4 M KF, pH 7.0) at 4× the stated concentration. 5 μl of each reagent was subsequently added to low volume 384-well assay plates (Greiner, 784075) to give a final reaction volume of 20 μl. IgG antibodies were labelled using the d2 labelling kit (CisBio, 62D2DPEA) as directed by the manufacturer. Streptavidin europium cryptate (CisBio, 610SAKLA, Lot#25C) was used at a final concentration of 1.8 ng active moiety (SA) per 20 μl reaction as recommended by the manufacturer. Biotinylated rCd4-His-FBG was prepared using EZ-link Sulfo-NHS-LC-Biotin reagent (Thermo Scientific, 21327) the extent of biotinylation was quantified using biotinylation fluorescence quantitation kit (Thermo Scientific, 46610). Where appropriate, supernatants containing scFv (prepared as described above for ELISA assays) were added to the 384-well assay plate at a final dilution of 1/20 (i.e. 1/5 dilution in assay buffer followed by addition of 5 μl diluted sample to the 20 μl FRET assay). […] Samples were incubated for approximately 1 h at room temperature and the FRET signal was determined using a BMG Pherastar instrument: excitation=320 nm; emission=620 nm and 665 nm; integration start time=60 μs; integration time=500 μs; 100 flashes per well. For competition assays containing culture supernatant, biotinylated rCd4-His-FBG antigen was pre-incubated with streptavidin europium cryptate for 45 min prior to addition of reagents to the assay plate. All FRET signals are presented as ΔR, where R=(E665/E620×104) and ΔR=(Rsample−Rbackground fluorescence).

Row | koff [1] | fold improvement in binding over parent [6] | % inhibition of HTRF signal [7] | % inhibition of FRET signal [7] | Binder | also measured
1 | 5.6e-06 s⁻¹ |  |  |  | 165_13_B6 human IgG4 (antibody, V domains shown, human IgG4 with hinge S241P) VH: QVQLVESGGGLVQPGRSLRLSCAASGFTFDDYAMHWVRQAPGKGLEWVSGISGSGGSTYYADSVKGRFTISRDNAKNSLYLQMNSLRAEDTALYYCAKGQKGEGDTFDIWGQGTMVTVSS VL: DIQMTQSPASLPTPVGDRVTITCRASQYIQGFLNWYQQKPGKAPKLLIYDASNLETGVPSRFSGSGSGTDFTLTISSLQPEDFATYYCQQSYSTPQTFGQGTKVDIKR | koff [2]: 6.9e-06 s⁻¹; koff [3]: 0.0037 s⁻¹
2 | 0.0091 s⁻¹ |  |  |  | 2A5 human IgG4 (antibody, V domains shown, human IgG4 with hinge S241P; also called 2A5 parent) VH: EVRLVQSGAEVKKPGASVKVSCKVSGYTLTELSMHWVRQAPGKGLEWMGGFDPEDGETIYAQKFQGRVTMTEDTSTDTAYMELSSLRSEDTAVYYCATAQKETYALTYWGQGTLVTVSS VL: DIQMTQSPASLPTSVGDRVTITCRASQYIQGFLNWYQQKPGKAPRLLIYAASTLQDGVPSRFSGSGYGTDFTLTISSLQPEDFATYYCQQSYSTPWTFGQGTKVEIKR | Kd [4]: 23.8 nM; koff [4]: 0.0323 s⁻¹; kon [4]: 1.36e+06 M⁻¹ s⁻¹; Kd [5]: 123 nM; koff [5]: 0.0106 s⁻¹; kon [5]: 86800 M⁻¹ s⁻¹
3 |  | ≥ 4 fold | ≥ 91% |  | 165_13_D1 scFv (scFv, V domains shown, not shown: small tags and cut ends, E. coli supernatant scFv) VH: QVQLVESGGGLVQPGRSLRLSCAASGFTFDDYAMHWVRQAPGKGLEWVSGISGSGGSTYYADSVKGRFTISRDNAKNSLYLQMNSLRAEDTALYYCAKGTRGEGDTFDIWGQGTMVTVSS VL: DIQMTQSPASLPTPVGDRVTITCRASQYIQGFLNWYQQKPGKAPKLLIYDASNLETGVPSRFSGSGSGTDFTLTISSLQPEDFATYYCQQSYSTPQTFGQGTKVDIK | 
4 | 6.2e-07 s⁻¹ |  |  |  | 165_13_D4 human IgG4 (antibody, V domains shown, human IgG4 with hinge S241P) VH: QVQLVESGGGLVQPGRSLRLSCAASGFTFDDYAMHWVRQAPGKGLEWVSGISGSGGSTYYADSVKGRFTISRDNAKNSLYLQMNSLRAEDTALYYCAKGTVGEGDTFDIWGQGTMVTVSS VL: DIQMTQSPASLPTPVGDRVTITCRASQYIQGFLNWYQQKPGKAPKLLIYDASNLETGVPSRFSGSGSGTDFTLTISSLQPEDFATYYCQQSYSTPQTFGQGTKVDIKR | koff [2]: 3.7e-06 s⁻¹; koff [3]: 0.004 s⁻¹
5 |  | ≥ 4 fold | ≥ 91% |  | 165_13_B6 scFv (scFv, V domains shown, not shown: small tags and cut ends, E. coli supernatant scFv) VH: QVQLVESGGGLVQPGRSLRLSCAASGFTFDDYAMHWVRQAPGKGLEWVSGISGSGGSTYYADSVKGRFTISRDNAKNSLYLQMNSLRAEDTALYYCAKGQKGEGDTFDIWGQGTMVTVSS VL: DIQMTQSPASLPTPVGDRVTITCRASQYIQGFLNWYQQKPGKAPKLLIYDASNLETGVPSRFSGSGSGTDFTLTISSLQPEDFATYYCQQSYSTPQTFGQGTKVDIK | 
6 |  | ≥ 4 fold | ≥ 91% |  | 165_13_B1 scFv (scFv, V domains shown, not shown: small tags and cut ends, E. coli supernatant scFv) VH: QVQLVESGGGLVQPGRSLRLSCAASGFTFDDYAMHWVRQAPGKGLEWVSGISGSGGSTYYADSVKGRFTISRDNAKNSLYLQMNSLRAEDTALYYCAKVMSSMEDAFDIWGQGTMVTVSS VL: DIQMTQSPASLPTPVGDRVTITCRASQYIQGFLNWYQQKPGKAPKLLIYDASNLETGVPSRFSGSGSGTDFTLTISSLQPEDFATYYCQQSYSTPQTFGQGTKVDIK | 
7 |  | ≥ 10 fold |  | ≥ 83% | 162_02_H5 scFv (scFv, V domains shown, not shown: small tags and cut ends, E. coli supernatant scFv) VH: EVRLVQSGAEVKKPGASVKVSCKVSGYTLTELSMHWVRQAPGKGLEWMGGFDPEDGETIYAQKFQGRVTMTEDTSTDTAYMELSSLRSEDTAVYYCATAQKETYALTYWGQGTLVTVSS VL: DIQMTQSPASLPTSVGDRVTITCRASQYIQGFLNWYQQKPGKAPRLLIYAASTLQDGVPSRFSGSGYGTDFTLTISSLQPEDFATYYCQNQYTGPWTFGQGTKVEIK | 
8 |  | ≥ 10 fold |  | ≥ 83% | 163_02_A12 scFv (scFv, V domains shown, E. coli supernatant scFv; not shown: scFv linker, domain order and the pSANG10 tags (FLAG/His)) VH: EVRLVQSGAEVKKPGASVKVSCKVSGYTLTELSMHWVRQAPGKGLEWMGGFDPEDGETIYAQKFQGRVTMTEDTSTDTAYMELSSLRSEDTAVYYCATAQKETYALTYWGQGTLVTVSS VL: DIQMTQSPASLPTSVGDRVTITCRASQYIQGFLNWYQQKPGKAPRLLIYAASTLQDGVPSRFSGSGYGTDFTLTISSLQPEDFATYYCLHHYREPWTFGQGTKVEIK | 
9 |  | ≥ 10 fold |  | ≥ 83% | 163_02_D11 scFv (scFv, V domains shown, E. coli supernatant scFv; not shown: scFv linker, domain order and the pSANG10 tags (FLAG/His)) VH: EVRLVQSGAEVKKPGASVKVSCKVSGYTLTELSMHWVRQAPGKGLEWMGGFDPEDGETIYAQKFQGRVTMTEDTSTDTAYMELSSLRSEDTAVYYCATAQKETYALTYWGQGTLVTVSS VL: DIQMTQSPASLPTSVGDRVTITCRASQYIQGFLNWYQQKPGKAPRLLIYAASTLQDGVPSRFSGSGYGTDFTLTISSLQPEDFATYYCLHHYKSPWTFGQGTKVEIK | 
